The values below come from doi:10.1101/2021.03.14.433363.

As usually defined, the Kd is the concentration at which binding is half-saturated. Low values mean tighter binding, high ones weaker binding.

One data set deals with T1, DRH-3 full length (Caenorhabditis elegans, UniProt Q93413 1-1119).
T1 sequence: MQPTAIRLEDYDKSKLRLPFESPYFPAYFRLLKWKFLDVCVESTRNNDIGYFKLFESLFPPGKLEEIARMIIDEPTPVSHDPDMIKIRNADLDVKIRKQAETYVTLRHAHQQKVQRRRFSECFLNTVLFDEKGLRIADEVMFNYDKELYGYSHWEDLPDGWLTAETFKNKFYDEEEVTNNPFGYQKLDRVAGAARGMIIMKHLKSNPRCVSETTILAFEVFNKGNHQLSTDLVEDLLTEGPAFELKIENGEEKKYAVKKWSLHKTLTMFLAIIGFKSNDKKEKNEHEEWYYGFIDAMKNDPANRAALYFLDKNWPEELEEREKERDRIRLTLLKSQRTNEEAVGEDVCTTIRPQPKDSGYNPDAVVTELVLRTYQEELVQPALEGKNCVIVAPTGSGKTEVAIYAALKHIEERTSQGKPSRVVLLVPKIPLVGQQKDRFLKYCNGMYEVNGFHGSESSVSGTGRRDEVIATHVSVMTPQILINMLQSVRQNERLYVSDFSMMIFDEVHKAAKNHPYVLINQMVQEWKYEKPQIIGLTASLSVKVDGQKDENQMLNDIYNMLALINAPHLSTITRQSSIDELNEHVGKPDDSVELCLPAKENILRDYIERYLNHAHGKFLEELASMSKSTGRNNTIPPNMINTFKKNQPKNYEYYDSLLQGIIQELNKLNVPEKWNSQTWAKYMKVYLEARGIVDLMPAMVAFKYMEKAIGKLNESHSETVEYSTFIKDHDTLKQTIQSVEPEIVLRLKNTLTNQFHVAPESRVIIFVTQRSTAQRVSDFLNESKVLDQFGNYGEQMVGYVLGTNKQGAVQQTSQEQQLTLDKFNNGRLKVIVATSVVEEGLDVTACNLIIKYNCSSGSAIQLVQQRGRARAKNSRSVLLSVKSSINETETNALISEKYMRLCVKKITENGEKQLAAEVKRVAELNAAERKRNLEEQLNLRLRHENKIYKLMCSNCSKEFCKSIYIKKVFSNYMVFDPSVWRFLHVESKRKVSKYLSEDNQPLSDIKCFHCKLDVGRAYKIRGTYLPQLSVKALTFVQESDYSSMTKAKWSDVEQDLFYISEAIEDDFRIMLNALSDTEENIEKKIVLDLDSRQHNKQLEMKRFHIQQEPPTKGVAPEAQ
The data set can be described thus: HDX-MS.

The target of data set [1] is T2, DRH-3 CTD (Caenorhabditis elegans, UniProt Q93413 940-1108).
T2 sequence: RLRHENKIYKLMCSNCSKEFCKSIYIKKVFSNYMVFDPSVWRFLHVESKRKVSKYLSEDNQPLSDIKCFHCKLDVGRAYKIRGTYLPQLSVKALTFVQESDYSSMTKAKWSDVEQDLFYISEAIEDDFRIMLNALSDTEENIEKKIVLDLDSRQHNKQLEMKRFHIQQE
The experiment in a line: crystal structure.

Data set [2] concerns the target T3, RIG-I CTD (human, UniProt O95786 802-925).
T3 sequence: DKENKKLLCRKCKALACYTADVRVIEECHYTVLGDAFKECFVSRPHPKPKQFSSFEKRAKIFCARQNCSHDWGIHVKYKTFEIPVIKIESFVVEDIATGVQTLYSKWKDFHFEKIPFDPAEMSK
The experiment in a line: limited trypsin proteolysis protection.

Data set [3] has as its target T2, DRH-3 CTD. The experiment in a line: fluorescence polarization. (In general: Polarisation of emitted light reports the rotation of a fluorescent probe.)
In data set [4] the target is T3, RIG-I CTD. The data set can be described thus: limited trypsin proteolysis protection. The source holds these as a separate data set.

Read-outs that look alike come from different tables or passages of the source.

B1: 3p10L (SLR10) (structured_RNA)
RNA: GGACGUACGUUUCGACGUACGUCC
modifications: 5'-triphosphate
Turning to B1, the binding result with DRH-3 full length is “binds”.

B2: 5'-ppp 8-mer ssRNA (ssRNA)
RNA: GGCCGCCC
modifications: 5'-triphosphate
With B2, in the data set with DRH-3 CTD [1], the binding result is reported as “binds”.

B3: 5'-ppp 12-mer dsRNA (dsRNA)
RNA 1: GGCGCGCGCGCC
RNA 2: GGCGCGCGCGCC
modifications: 5'-triphosphate
B3: the binding result with DRH-3 CTD [1] and with RIG-I CTD [2] was “binds” in each case.

B4: FAM-labelled 5'-OH 18-mer hairpin RNA (structured_RNA)
RNA: UUUAUAUAUUAGGACCGCUCGGCGGUCCUAAUAUAUAAA
modifications: 5'-OH
Molecule B4 registered a Kd with DRH-3 CTD [3] of 325 ± 70.1 nM.

B5: 5'-ppp 12-mer dsRNA with 3'-overhang (dsRNA)
RNA 1: GGCGCGCGCGCCC
RNA 2: GGCGCGCGCGCCC
modifications: 5'-triphosphate
Take B5: the binding result with RIG-I CTD [4] is “binds”.
